# Measurements taken from US10413607B2, “Antibody specifically binding to ErbB3 and use thereof” (ISU ABXIS CO., LTD., priority 2015, dated 2019).
# Positions count from the first letter of the chain named.
# B1: 442S9: modified anti-ErbB3 antibody from lead antibody 442P (CDR mutagenesis) (antibody, V domains shown)
# VH: EVQLLESGGGLVQPGGSLRLSCAASGFTFSDYDMSWVRQAPGKGLEWVSSIYPDSGSTYYADSVQGRFTISRDNSKNTLYLQMNSLRAEDTAVYYCAKDRHMWPEGPFDYWGQGTLVTVSS
# VL: QSVLTQPPSASGTPGQRVTISCSGSSSNIGSNSGSWYQQLPGTAPKLLIYADNHRPSGVPDRFSGSKSGTSASLAISGLRSEDEADYYCAAWDSSLSGYVFGGGTKLTVLG
# modifications: Heavy chain variable region of antibody 442S9; Light chain variable region of antibody 442S9
# B2: 451M1: modified anti-ErbB3 antibody from lead antibody 451P (CDR mutagenesis) (antibody, V domains shown)
# VH: EVQLLESGGGLVQPGGSLRLSCAASGFTFSDYDMSWVRQAPGKGLEWVSAIYYDSGSIYYADSAKGRFTISRDNSKNTLYLQMNSLRAEDTAVYYCAKDRLFMSDSTFDYWGQGTLVTVSS
# VL: B1 VL with S26P, S31N, G34V, S35T, A51Y, N53S, A90G, A91S, S94A, S97N
# modifications: Heavy chain variable region of antibody 451M1; Light chain variable region of antibody 451M1
# B3: 442M4: modified anti-ErbB3 antibody from lead antibody 442P (CDR mutagenesis) (antibody, V domains shown)
# VH: B1 VH with S50T, Y52D, P53L, T58I, R100L, W103G
# VL: B1 VL with G34V, A51S, A90V, A91G, S97Y, Y99H
# modifications: Heavy chain variable region of antibody 442M4; Light chain variable region of antibody 442M4
# B4: 451M4: modified anti-ErbB3 antibody from lead antibody 451P (CDR mutagenesis) (antibody, V domains shown)
# VH: B2 VH with D31Y, M103A
# VL: B1 VL with S26P, S31N, G34V, S35T, A51Y, N53S, A90G, A91S, S94A, S97N
# modifications: Heavy chain variable region of antibody 451M4; Light chain variable region of antibody 451M4
# B5: 442M6: modified anti-ErbB3 antibody from lead antibody 442P (CDR mutagenesis) (antibody, V domains shown)
# VH: B1 VH with Y52E, Y59D
# VL: B1 VL with H54W
# modifications: Heavy chain variable region of antibody 442M6; Light chain variable region of antibody 442M6
# B6: 451M2: modified anti-ErbB3 antibody from lead antibody 451P (CDR mutagenesis) (antibody, V domains shown)
# VH: B2 VH with M103A
# VL: B1 VL with S26P, S31N, G34V, S35T, A51Y, N53S, A90G, A91S, S94A, S97N
# modifications: Heavy chain variable region of antibody 451M2; Light chain variable region of antibody 451M2
# B7: 472S3: modified anti-ErbB3 antibody from lead antibody 472P (CDR mutagenesis) (antibody, V domains shown)
# VH: EVQLLESGGGLVQPGGSLRLSCAASGFTFSWYDMSWVRQAPGKGLEWVSGISYDGGNTYYADSVKGRFTISRDNSKNTLYLQMNSLRAEDTAVYYCARDPSWCLQDLCYYADGMDVWGQGTLVTVSS
# VL: B1 VL with G34V, N53S, H54N, A90G, A91S, S94Y
# modifications: Heavy chain variable region of antibody 472S3; Light chain variable region of antibody 472S3
# B8: 442M8: modified anti-ErbB3 antibody from lead antibody 442P (CDR mutagenesis) (antibody, V domains shown)
# VH: B1 VH with R100L, W103G
# VL: B1 VL with G34V, A51S, A90H, S97Y, G98V, Y99D
# modifications: Heavy chain variable region of antibody 442M8; Light chain variable region of antibody 442M8
# B9: 442M5: modified anti-ErbB3 antibody from lead antibody 442P (CDR mutagenesis) (antibody, V domains shown)
# VH: B1 VH with S50T, Y52D, P53L, T58I, R100L, W103G
# VL: B1 VL with G34V, A51S, A90H, S97W, Y99D
# modifications: Heavy chain variable region of antibody 442M5; Light chain variable region of antibody 442M5
# B10: 472S2: modified anti-ErbB3 antibody from lead antibody 472P (CDR mutagenesis) (antibody, V domains shown)
# VH: B7 VH with M34L, S35A
# VL: B1 VL with G34V, N53S, H54N, A90G, A91S, S94Y
# modifications: Heavy chain variable region of antibody 472S2; Light chain variable region of antibody 472S2
# B11: 451M3: modified anti-ErbB3 antibody from lead antibody 451P (CDR mutagenesis) (antibody, V domains shown)
# VH: B2 VH with D31H, M103A
# VL: B1 VL with S26P, S31N, G34V, S35T, A51Y, N53S, A90G, A91S, S94A, S97N
# modifications: Heavy chain variable region of antibody 451M3; Light chain variable region of antibody 451M3
# B12: 442M11: modified anti-ErbB3 antibody from lead antibody 442P (CDR mutagenesis) (antibody, V domains shown)
# VH: B1 VH with S50T, Y52E, S55Y, Y59L, R100L, W103G
# VL: B1 VL with G34V, A51S, A90H, Y99D, V100F
# modifications: Heavy chain variable region of antibody 442M11; Light chain variable region of antibody 442M11
# B13: 442M10: modified anti-ErbB3 antibody from lead antibody 442P (CDR mutagenesis) (antibody, V domains shown)
# VH: B1 VH with Y59D, R100L
# VL: B1 VL with G34V, H54F
# modifications: Heavy chain variable region of antibody 442M10; Light chain variable region of antibody 442M10
# B14: 472S4: modified anti-ErbB3 antibody from lead antibody 472P (CDR mutagenesis) (antibody, V domains shown)
# VH: B7 VH with M34I, S35A
# VL: B1 VL with G34V, N53S, H54N, A90G, A91S, S94Y
# modifications: Heavy chain variable region of antibody 472S4; Light chain variable region of antibody 472S4
# B15: 472S1: modified anti-ErbB3 antibody from lead antibody 472P (CDR mutagenesis) (antibody, V domains shown)
# VH: B7 VH with S35T
# VL: B1 VL with G34V, N53S, H54N, A90G, A91S, S94Y
# modifications: Heavy chain variable region of antibody 472S1; Light chain variable region of antibody 472S1
# B16: 442M3: modified anti-ErbB3 antibody from lead antibody 442P (CDR mutagenesis) (antibody, V domains shown)
# VH: B1 VH
# VL: B1 VL with H54W
# modifications: Heavy chain variable region of antibody 442M3; Light chain variable region of antibody 442M3
# B17: 472M1: modified anti-ErbB3 antibody from lead antibody 472P (CDR mutagenesis) (antibody, V domains shown)
# VH: B7 VH with M34L
# VL: B1 VL with G34V, N53S, H54N, A90G, A91S, S94Y
# modifications: Heavy chain variable region of antibody 472M1; Light chain variable region of antibody 472M1
# Molecular target: T1, recombinant human ErbB3 protein (Homo sapiens, UniProt P21860)
# T1 construct: purchased R&D systems
# Assay: Binding affinity of anti-ErbB3 antibody to human ErbB3 protein (Octet QK384)
# Conditions: immobilized human ErbB3; binding phase about 900 seconds
# Method: In particular, the binding affinities of the anti-ErbB3 antibodies to the recombinant human ErbB3 protein (R&D systems) and the antigen-antibody interactive dynamics were measured using an Octet® QK384 system (Pall Life Sciences). After activation of carboxyl groups in 20 mM of 1-ethyl-3-(3-dimethylaminopropyl)carbodiimide hydrochloride (EDC) and 40 mM of N-hydroxysulfosuccinimide (sulfo-NHS) solution on an AR2G sensor (ForteBio), 10 μg/mL of human ErbB3 protein solution diluted with 10 mM of sodium acetate (pH 4.0) (ForteBio) was added to immobilize human ErbB3 protein onto the AR2G sensor. The AR2G sensor to which the human ErbB3 protein was immobilized was treated with 1 M of ethanolamine (ForteBio) to inactivate the remaining unreacted carboxyl groups.
row,Molecule,ka (association constant) [M⁻¹ s⁻¹]
1,B1,821000
2,B2,1.24e+06
3,B3,573000
4,B4,2.01e+06
5,B5,969000
6,B6,1.24e+06
7,B7,522000
8,B8,870000
9,B9,665000
10,B10,1.07e+06
11,B11,1.87e+06
12,B12,1.49e+06
13,B13,471000
14,B14,1.15e+06
15,B15,649000
16,B16,771000
17,B17,1.39e+06

# Same assay, conditions: immobilized human ErbB3; dissociation phase about 1200 seconds
row,Molecule,kd (dissociation constant) [s⁻¹]
1,B1,5.87e-05
2,B2,3.08e-05
3,B3,<1e-07
4,B4,1.23e-05
5,B5,1.95e-05
6,B6,1.56e-05
7,B7,1.43e-07
8,B8,2.23e-06
9,B9,<1e-07
10,B10,<1e-07
11,B11,2.3e-07
12,B12,8.09e-06
13,B13,<1e-07
14,B14,1.09e-05
15,B15,3.33e-07
16,B16,2.62e-06
17,B17,1.74e-05
